Data reported in patent US20210130481A1 (INSERM INSTITUT NATIONAL DE LA SANTE ET DE LA RECHERCHE …, published 2021).
Positions count from the first letter of the chain named. One block for each binder: values may come before it.

How the values were obtained:
[1] = biological target: T1, human follicle-stimulating hormone receptor (FSHR) (human, UniProt P23945 18-695); assay: immunofluorescence microscopy on fixed FSHR-L-cells
T1 construct: whole, on cells; also called huFSHR; hFSHR
T1 sequence (looked up): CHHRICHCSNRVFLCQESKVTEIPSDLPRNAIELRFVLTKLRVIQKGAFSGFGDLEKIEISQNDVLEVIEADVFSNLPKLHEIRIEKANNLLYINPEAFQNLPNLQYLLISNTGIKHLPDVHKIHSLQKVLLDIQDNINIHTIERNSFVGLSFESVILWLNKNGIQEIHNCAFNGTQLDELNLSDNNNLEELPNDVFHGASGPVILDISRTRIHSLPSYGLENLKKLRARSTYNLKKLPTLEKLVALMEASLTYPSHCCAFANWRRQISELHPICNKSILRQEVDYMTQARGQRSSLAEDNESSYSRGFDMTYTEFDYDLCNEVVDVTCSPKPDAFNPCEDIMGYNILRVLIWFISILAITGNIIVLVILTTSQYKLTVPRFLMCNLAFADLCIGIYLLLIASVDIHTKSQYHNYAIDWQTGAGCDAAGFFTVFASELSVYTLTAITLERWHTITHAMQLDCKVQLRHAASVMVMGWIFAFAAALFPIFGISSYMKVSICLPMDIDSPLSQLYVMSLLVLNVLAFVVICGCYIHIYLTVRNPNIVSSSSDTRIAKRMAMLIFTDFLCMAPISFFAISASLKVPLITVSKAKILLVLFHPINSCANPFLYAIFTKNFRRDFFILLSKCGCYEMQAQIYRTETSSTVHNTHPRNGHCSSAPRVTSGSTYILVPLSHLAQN
Procedure: FSHR-L-cells and wild type L-cells were cultured at 37° C. on LabTeck 8-wells (10,000 cells/well) in DMEM containing 10% horse serum, 1 mM glutamine, 1 mM pyruvate in presence of 5% CO₂. When reached 70% confluence, the cells were washed with PBS (three times) and fixed with 4% paraformaldehyde in PBS (15 min at room temperature (RT)). The free aldehyde groups were quenched with 100 mM NH₄Cl in PBS for 15 min at RT (i.e. 20° C.). To block the nonspecific binding of antibodies the cells were incubated 1 hour at RT (i.e. 20° C.) with PBS (pH=7.4) containing 2% goat serum (blocking buffer). FSHR was detected by incubating cells with serial dilutions of the monoclonal primary antibodies 1, 2, 3, 4, and 5 (3 μg/ml−1 μg/ml—0.3 μg/ml−0.1 μg/ml, 0.03 μg/ml, and 0.01 μg/ml of blocking buffer) overnight at 4° C. and with goat anti-mouse IgG-Alexa 555 (Invitrogen #A21137; dilution 1:1000 in blocking buffer) for 1 hour at room temperature. The known FSHR323 antibody (INSERM-Transfert, Paris) was used as a positive IgG2a control (3 μg/ml) as previously described in Radu et al. 2010 [9]. The cell nuclei were detected by incubating cells for 10 min with DAPI (SIGMA-ALDRICH®#32670; dilution 1:1000 in PBS). The slides were mounted in Dako fluorescent mounting medium containing 15 mM sodium azide and examined with an Olympus microscope.

[2] = biological target: T1, human follicle-stimulating hormone …; assay: FACS on huFSHR L-cells, 4-fold serial dilutions, goat anti-mouse IgG-APC detection
Procedure: (§1) In order to characterize and to check whether the IgGs anti human FSHR retain specificity for huFSHR and whether they bind to this receptor with higher affinity than known antibody, a binding FACS experiment using different IgGs (MABs) concentrations and huFSHR-L-cell and WT L-cells was performed. These cells were QCed for huFSHR expression.
(§2) The HuFSHR L-cells were prepared as previously described [Vannier et al 1996 [15]. Briefly, mouse L cells were co-transfected, using the calcium phosphate precipitate method, with the plasmid encoding the hFSHR (pSG5-hFSHR) and with the plasmid pSV-Neo, a vector which confers resistance to the antibiotic G 418. Neomycin-resistant cells were selected in DMEM supplemented with 10% fetal calf serum and G 418 (geneticin, SIGMA-ALDRICH®) (1 mg/mL). […] The transfected cells were maintained in medium containing G 418 (200 ig/mL) for further studies. The samples were 4-fold serial dilution of monoclonal antibodies and buffer: FACS buffer (1×PBS containing 0.4 g/l human albumin, pH 7.4).
(§3) 100 μl/well of goat anti-mouse IgG conjugated to APC (GAM-APC) (BD™ Bioscience, 1:500 dilution) was added to the cells and incubated for 30 min at 4° C., gently shaking

[3] = biological target: T1, human follicle-stimulating hormone …; assay: FACS on huFSHR L-cells; this end is tied to antibody 1 by Table 2 (1.582/0.2112)
Procedure: as §1, §2, §3

[4] = biological target: T1, human follicle-stimulating hormone …; assay: FACS on huFSHR L-cells; this end is tied to antibody 2 by Table 2 (1.582/0.08678)
Procedure: as §1, §2, §3

[5] = biological target: T1, human follicle-stimulating hormone …; assay: peroxidase immunohistochemistry on paraffin sections of human testis; this end is tied to antibody 4 by the example in the sentence (0.2 against 5 µg/ml)
Procedure: Immunohistochemistry: Serial 3-μm-thick sections of human testis tissue (n=30 sections) were cut, attached to SuperFrost slides, deparaffinized with xylene, […] gradually in ethanol and washed with running tap water for 60 min. Access to tissue antigen sites for antibody attachment was enhanced by incubating slides at 90° C. for 40 min with 10 mM citrate buffer, pH 6. After cooling at room temperature (RT) for 20 min, and after each subsequent step, slides were rinsed with PBS. To block endogenous peroxidase activity, the sections were incubated with 6% hydrogen peroxide (15 min at RT, i.e. 20° C.). Sodium borohydride (10 mg/ml PBS) was used to quench free aldehyde groups (15 min, RT i.e. 20° C.). Non-specific binding of antibodies was blocked by incubating slides with 2% goat serum in Phosphate Buffer Saline (PBS) (blocking buffer) at 20° C. (RT) for 2 h. The slides were incubated with serial dilutions of the monoclonal primary antibodies 4, 2, 3 (5 μg/ml−1 μg/ml−0.2 μg/ml−0.04 μg/ml of blocking buffer) in blocking buffer overnight at 4° C. The known FSHR323 antibody (INSERM-Transfert, Paris) was used as a positive IgG2a control. […] The biotinylated goat anti-mouse IgG (Fc-specific) antibody (dilution 1:200), used as secondary antibody, was detected by using streptavidin coupled to horseradish peroxidase (dilution 1:500). […]

- fold lower labelling concentration than the optimal concentration of FSHR323 [1]: 33 fold
- EC50 [2]: 0.0893 nM
B1: mouse IgG2a anti human FSHR antibody 3 (VH CDR1 of SEQ ID NO 3, VH CDR2 of SEQ ID NO 8) (antibody, V domains shown)
VH: QVQLQQSGAELMKPGASVKISCKATGYTFSKQWLLWVKQRPGHGLEWIGEIFPRNGNTNYNEKFKGKATFTADTSSSTAYMQLSSLTSEDSAVYYCARGPTASGYAMDYWGQGTSVTVSS
VL: DVLMTQTPLSLPVSLGDQASISCRSSQSIVHRNGNTYLEWYLQKPGQSPKLLIYKVSNRFSGVPDRFSGSGSGTDFTLKIIRVEAEDLGVYYCFQGSHVPFTFGSGTKLEIK
notes: Mouse IgG2a heavy constant domains and mouse C kappa; also called sample 3; mouse IgG2 FSHR323 variant

- fold lower labelling concentration than the optimal concentration of FSHR323 [1]: 33 fold
- fold improvement of EC50 against the known antibody [3]: 7.5 fold
- EC50 [2]: 0.211 nM
B2: mouse IgG2a anti human FSHR antibody 1 (VH CDR1 of SEQ ID NO 1, VH CDR2 of SEQ ID NO 6) (antibody, V domains shown)
VH: B1 VH with K31Q, Q32F, W33Y, L34V, L35G, N55T
VL: B1 VL
notes: VH was cloned in frame with mouse IgG2a heavy constant domains and the V kappa with mouse C kappa; also called sample 1; mouse IgG2 FSHR323 variant

- fold lower labelling concentration than the optimal concentration of FSHR323 [1]: 33 fold
- EC50 [2]: 0.101 nM
B3: mouse IgG2a anti human FSHR antibody 5 (VH CDR1 of SEQ ID NO 5, VH CDR2 of SEQ ID NO 10) (antibody, V domains shown)
VH: B1 VH with Q32Y, L34T, L35Q, F52Y
VL: B1 VL
notes: Mouse IgG2a heavy constant domains and mouse C kappa; also called sample 5; mouse IgG2 FSHR323 variant

- fold lower labelling concentration than the optimal concentration of FSHR323 [1]: 33 fold
- fold improvement of EC50 against the known antibody [4]: 18.2 fold
- EC50 [2]: 0.0868 nM
B4: mouse IgG2a anti human FSHR antibody 2 (VH CDR1 of SEQ ID NO 2, VH CDR2 of SEQ ID NO 7) (antibody, V domains shown)
VH: B1 VH with K31R, L34V, L35I, F52L
VL: B1 VL
notes: Mouse IgG2a heavy constant domains and mouse C kappa; also called sample 2; mouse IgG2 FSHR323 variant

- fold lower labelling concentration than the optimal concentration of FSHR323 [1]: 33 fold
- EC50 [2]: 0.098 nM
- fold higher affinity than FSHR323 (by optimal IHC dilution) [5]: 25 fold
B5: mouse IgG2a anti human FSHR antibody 4 (VH CDR1 of SEQ ID NO 4, VH CDR2 of SEQ ID NO 9) (antibody, V domains shown)
VH: B1 VH with K31R, Q32S, L34I, F52Y, R54Q, G56Q
VL: B1 VL
notes: Mouse IgG2a heavy constant domains and mouse C kappa; also called sample 4; mouse IgG2 FSHR323 variant
